Results reported in US20230212319A1, “NOVEL ANTIGEN BINDING DOMAINS AND SYNTHETIC ANTIGEN RECEPTORS INCORPORATING THE SAME” (University of Southern California, priority 2020, published 2023).

B1: 22234 (protein)
chain: MALPVTALLLPLALLLHAARPDIQMTQSPSSLSASVGDRVTITCKASDHINNWLAWYQQKPGQAPKLLIYGATTLETGVPSRFSGSGSGTDYTLTISSLQPEDFATYYCQQSWNTPWTFGQGTKLEIKRLEDLKNVFPPEVAVFEPSEAEISHTQKATLVCLATGFYPDHVELSWWVNGKEVHSGVCTDPQPLKEQPALNDSRYCLSSRLRVSATFWQNPRNHFRCQVQFYGLSENDEWTQDRAKPVTQIVSAEAWGRADCGFTSESYQQGVLSATILYEILLGKATLYAVLVSALVLMAMVKRKDSRGRAKRSGSGATNFSLLKQAGDVEENPGPTSATMDWIWRILFLVGAATGAHSQLGPYELWELSHGSGSGSGSQLGPYELWELSHSGGGSGQLGPYELWELSHGSSGPGSGSCQFDLSTRRLKCGSGSCQFDLSTRRLKCGSGGGGSGGGGSGGGGSFEQVQLQQPGAELVKPGASVKMSCKASGYAFSSYWINWMKQKPGQGLEWIGQIYPGDGDTNYNGKFKGRATLTADTSSSTAYMQLSSLTSEDSAVYFCARSITTVVGCAMDYWGQGTSVTVSSTRIQNPDPAVYQLRDSKSSDKSVCLFTDFDSQTNVSQSKDSDVYITDKCVLDMRSMDFKSNSAVAWSNKSDFACANAFNNSIIPEDTFFPSPESSCDVKLVEKSFETDTNLNFQNLSVIGFRILLLKVAGFNLLMTLRLWSSRAKRSGSGVKQTLNFDLLKLAGDVESNPGPSRGHMTEYKPTVRLATRDDVPRAVRTLAAAFADYPATRHTVDPDRHIERVTELQELFLTRVGLDIGKVWVADDGAAVAVWTTPESVEAGAVFAEIGPRMAELSGSRLAAQQQMEGLLAPHRPKEPAWFLATVGVSPDHQGKGLGSAVVLPGVEAAERAGVPAFLETSAPRNLPFYERLGFTVTADVEVPEGPRTWCMTRKPGA
B2: 22222 (protein)
chain: MALPVTALLLPLALLLHAARPACPQLGPYELWELSHGTGAVVRGAEFDIQMTQSPSSLSASVGDRVTITCKASDHINNWLAWYQQKPGQAPKLLIYGATTLETGVPSRFSGSGSGTDYTLTISSLQPEDFATYYCQQSWNTPWTFGQGTKLEIKRLEDLKNVFPPEVAVFEPSKAEIAHTQKATLVCLATGFYPDHVELSWWVNGKEVHSGVCTDPQPLKEQPALNDSRYCLSSRLRVSATFWQNPRNHFRCQVQFYGLSENDEWTQDRAKPVTQIVSAEAWGRADCGITSASYHQGVLSATILYEILLGKATLYAVLVSALVLMAMVKRKDSRGRAKRSGSGATNFSLLKQAGDVEENPGPTSATMDWIWRILFLVGAATGAHSGPQVQLQESGGGLAQAGGSLRLSCAASGRTFSMGWFRQAPGKEREFVAAITYSGGSPYYASSVRGRFTISRDNAKNTVYLQMNSLKPEDTAVYYCAANPTYGSDWNAENWGQGTQVTVSSGSGGGGSGGGGSGGGGSFEQVQLQQPGAELVKPGASVKMSCKASGYAFSSYWINWMKQKPGQGLEWIGQIYPGDGDTNYNGKFKGRATLTADTSSSTAYMQLSSLTSEDSAVYFCARSITTVVGCAMDYWGQGTSVTVSSTRIQNPDPAVYQLRDSKSSDKSVCLFTDFDSQTNVSQSKDSDVYITDKCVLDMRSMDFKSNSAVAWSNKSDFACANAFNNSIIPEDTFFPSSDVPCDVKLVEKSFETDTNLNFQNLSVIGFRILLLKVAGFNLLMTLRLWSSRAKRSGSGVKQTLNFDLLKLAGDVESNPGPSRGHMTEYKPTVRLATRDDVPRAVRTLAAAFADYPATRHTVDPDRHIERVTELQELFLTRVGLDIGKVWVADDGAAVAVWTTPESVEAGAVFAEIGPRMAELSGSRLAAQQQMEGLLAPHRPKEPAWFLATVGVSPDHQGKGLGSAVVLPGVEAAERAGVPAFLETSAPRNLPFYERLGFTVTADVEVPEGPRTWCMTRKPGA
B3: 22223 (protein)
chain: MALPVTALLLPLALLLHAARPDIQMTQSPSSLSASVGDRVTITCKASDHINNWLAWYQQKPGQAPKLLIYGATTLETGVPSRFSGSGSGTDYTLTISSLQPEDFATYYCQQSWNTPWTFGQGTKLEIKRLEDLKNVFPPEVAVFEPSEAEISHTQKATLVCLATGFYPDHVELSWWVNGKEVHSGVCTDPQPLKEQPALNDSRYCLSSRLRVSATFWQNPRNHFRCQVQFYGLSENDEWTQDRAKPVTQIVSAEAWGRADCGFTSESYQQGVLSATILYEILLGKATLYAVLVSALVLMAMVKRKDSRGRAKRSGSGATNFSLLKQAGDVEENPGPTSATMDWIWRILFLVGAATGAHSGPQLGPYELWELSHGSGPLGIAGIFEQVQLQQPGAELVKPGASVKMSCKASGYAFSSYWINWMKQKPGQGLEWIGQIYPGDGDTNYNGKFKGRATLTADTSSSTAYMQLSSLTSEDSAVYFCARSITTVVGCAMDYWGQGTSVTVSSTRIQNPDPAVYQLRDSKSSDKSVCLFTDFDSQTNVSQSKDSDVYITDKCVLDMRSMDFKSNSAVAWSNKSDFACANAFNNSIIPEDTFFPSPESSCDVKLVEKSFETDTNLNFQNLSVIGFRILLLKVAGFNLLMTLRLWSSRAKRSGSGVKQTLNFDLLKLAGDVESNPGPSRGHMTEYKPTVRLATRDDVPRAVRTLAAAFADYPATRHTVDPDRHIERVTELQELFLTRVGLDIGKVWVADDGAAVAVWTTPESVEAGAVFAEIGPRMAELSGSRLAAQQQMEGLLAPHRPKEPAWFLATVGVSPDHQGKGLGSAVVLPGVEAAERAGVPAFLETSAPRNLPFYERLGFTVTADVEVPEGPRTWCMTRKPGA
B4: 22227 (protein)
chain: MALPVTALLLPLALLLHAARPDIQMTQSPSSLSASVGDRVTITCKASDHINNWLAWYQQKPGQAPKLLIYGATTLETGVPSRFSGSGSGTDYTLTISSLQPEDFATYYCQQSWNTPWTFGQGTKLEIKRLEDLKNVFPPEVAVFEPSEAEISHTQKATLVCLATGFYPDHVELSWWVNGKEVHSGVCTDPQPLKEQPALNDSRYCLSSRLRVSATFWQNPRNHFRCQVQFYGLSENDEWTQDRAKPVTQIVSAEAWGRADCGFTSESYQQGVLSATILYEILLGKATLYAVLVSALVLMAMVKRKDSRGRAKRSGSGATNFSLLKQAGDVEENPGPTSATMDWIWRILFLVGAATGAHSGPQLGPYELWELSHGSALRRLLGLFGFEQVQLQQPGAELVKPGASVKMSCKASGYAFSSYWINWMKQKPGQGLEWIGQIYPGDGDTNYNGKFKGRATLTADTSSSTAYMQLSSLTSEDSAVYFCARSITTVVGCAMDYWGQGTSVTVSSTRIQNPDPAVYQLRDSKSSDKSVCLFTDFDSQTNVSQSKDSDVYITDKCVLDMRSMDFKSNSAVAWSNKSDFACANAFNNSIIPEDTFFPSPESSCDVKLVEKSFETDTNLNFQNLSVIGFRILLLKVAGFNLLMTLRLWSSRAKRSGSGVKQTLNFDLLKLAGDVESNPGPSRGHMTEYKPTVRLATRDDVPRAVRTLAAAFADYPATRHTVDPDRHIERVTELQELFLTRVGLDIGKVWVADDGAAVAVWTTPESVEAGAVFAEIGPRMAELSGSRLAAQQQMEGLLAPHRPKEPAWFLATVGVSPDHQGKGLGSAVVLPGVEAAERAGVPAFLETSAPRNLPFYERLGFTVTADVEVPEGPRTWCMTRKPGA
B5: 22230 (protein)
chain: MALPVTALLLPLALLLHAARPDIQMTQSPSSLSASVGDRVTITCKASDHINNWLAWYQQKPGQAPKLLIYGATTLETGVPSRFSGSGSGTDYTLTISSLQPEDFATYYCQQSWNTPWTFGQGTKLEIKRLEDLKNVFPPEVAVFEPSEAEISHTQKATLVCLATGFYPDHVELSWWVNGKEVHSGVCTDPQPLKEQPALNDSRYCLSSRLRVSATFWQNPRNHFRCQVQFYGLSENDEWTQDRAKPVTQIVSAEAWGRADCGFTSESYQQGVLSATILYEILLGKATLYAVLVSALVLMAMVKRKDSRGRAKRSGSGATNFSLLKQAGDVEENPGPTSATMDWIWRILFLVGAATGAHSGPQDKLTQWPKWLEGGGGSELPTQGTFSNVSTNVSGGGGQDKLTQWPKWLEGGGGSELPTQGTFSNVSTNVSGSGGGGSGGGGSGGGGSFEQVQLQQPGAELVKPGASVKMSCKASGYAFSSYWINWMKQKPGQGLEWIGQIYPGDGDTNYNGKFKGRATLTADTSSSTAYMQLSSLTSEDSAVYFCARSITTVVGCAMDYWGQGTSVTVSSTRIQNPDPAVYQLRDSKSSDKSVCLFTDFDSQTNVSQSKDSDVYITDKCVLDMRSMDFKSNSAVAWSNKSDFACANAFNNSIIPEDTFFPSPESSCDVKLVEKSFETDTNLNFQNLSVIGFRILLLKVAGFNLLMTLRLWSSRAKRSGSGVKQTLNFDLLKLAGDVESNPGPSRGHMTEYKPTVRLATRDDVPRAVRTLAAAFADYPATRHTVDPDRHIERVTELQELFLTRVGLDIGKVWVADDGAAVAVWTTPESVEAGAVFAEIGPRMAELSGSRLAAQQQMEGLLAPHRPKEPAWFLATVGVSPDHQGKGLGSAVVLPGVEAAERAGVPAFLETSAPRNLPFYERLGFTVTADVEVPEGPRTWCMTRKPGA
B6: 22228 (protein)
chain: MALPVTALLLPLALLLHAARPDIQMTQSPSSLSASVGDRVTITCKASDHINNWLAWYQQKPGQAPKLLIYGATTLETGVPSRFSGSGSGTDYTLTISSLQPEDFATYYCQQSWNTPWTFGQGTKLEIKRLEDLKNVFPPEVAVFEPSEAEISHTQKATLVCLATGFYPDHVELSWWVNGKEVHSGVCTDPQPLKEQPALNDSRYCLSSRLRVSATFWQNPRNHFRCQVQFYGLSENDEWTQDRAKPVTQIVSAEAWGRADCGFTSESYQQGVLSATILYEILLGKATLYAVLVSALVLMAMVKRKDSRGRAKRSGSGATNFSLLKQAGDVEENPGPTSATMDWIWRILFLVGAATGAHSGPQDKLTQWPKWLEGSGGGGSGGGGSGGGGSFEQVQLQQPGAELVKPGASVKMSCKASGYAFSSYWINWMKQKPGQGLEWIGQIYPGDGDTNYNGKFKGRATLTADTSSSTAYMQLSSLTSEDSAVYFCARSITTVVGCAMDYWGQGTSVTVSSTRIQNPDPAVYQLRDSKSSDKSVCLFTDFDSQTNVSQSKDSDVYITDKCVLDMRSMDFKSNSAVAWSNKSDFACANAFNNSIIPEDTFFPSPESSCDVKLVEKSFETDTNLNFQNLSVIGFRILLLKVAGFNLLMTLRLWSSRAKRSGSGVKQTLNFDLLKLAGDVESNPGPSRGHMTEYKPTVRLATRDDVPRAVRTLAAAFADYPATRHTVDPDRHIERVTELQELFLTRVGLDIGKVWVADDGAAVAVWTTPESVEAGAVFAEIGPRMAELSGSRLAAQQQMEGLLAPHRPKEPAWFLATVGVSPDHQGKGLGSAVVLPGVEAAERAGVPAFLETSAPRNLPFYERLGFTVTADVEVPEGPRTWCMTRKPGA

System: RAJI cells
Assay: JNG assay, co-culture with RAJI cells
Format: cell-based
Settings: JNG cells expressing construct, co-culture with Raji
Summary of the method: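 Jurkat-NFAT-GFP (JNG) cells stably expressing SAR constructs via lentiviral transduction and puromycin/blasticidin selection were cocultured with target cells at E:T ~1:2 for ~4–18 h. NFAT-driven GFP was measured by FACS versus parental JNG cells; scores +/- to 5+ denote ~5–50% GFP-positive cells.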

| Molecule | NFAT-GFP ASSAY: Raji |
| --- | --- |
| B1 | Raji (+/-) (refer to approximately 5%, 10%, 20%, 30%, 40% and 50% GFP positive cells) |
| B2 | Raji (2+) (refer to approximately 5%, 10%, 20%, 30%, 40% and 50% GFP positive cells) |
| B3 | Raji (3+) (refer to approximately 5%, 10%, 20%, 30%, 40% and 50% GFP positive cells) |
| B4 | Raji (4+) (refer to approximately 5%, 10%, 20%, 30%, 40% and 50% GFP positive cells) |
| B5 | 4+ (refer to approximately 5%, 10%, 20%, 30%, 40% and 50% GFP positive cells) |
| B6 | Raji (2+) (refer to approximately 5%, 10%, 20%, 30%, 40% and 50% GFP positive cells) |
